Earlier results in patent US9333241B2, “Thyroid-stimulating hormone receptor polypeptide agonist glycoforms to treat metabolic syndrome” (LipoLytics Therapeutics, LLC, priority 2005, dated 2016).

Assays:
human TSHR = target: T1, human TSHR (Homo sapiens, UniProt P16473); conditions: human TSHR transfected into CHO cells
T1 construct: expressed in transfected cells; host or cells: CHO cells

[1] = test system: rodent models of the metabolic syndrome; conditions: recombinant glycoproteins produced in CHO cells

T1 sequence (P16473 21-764): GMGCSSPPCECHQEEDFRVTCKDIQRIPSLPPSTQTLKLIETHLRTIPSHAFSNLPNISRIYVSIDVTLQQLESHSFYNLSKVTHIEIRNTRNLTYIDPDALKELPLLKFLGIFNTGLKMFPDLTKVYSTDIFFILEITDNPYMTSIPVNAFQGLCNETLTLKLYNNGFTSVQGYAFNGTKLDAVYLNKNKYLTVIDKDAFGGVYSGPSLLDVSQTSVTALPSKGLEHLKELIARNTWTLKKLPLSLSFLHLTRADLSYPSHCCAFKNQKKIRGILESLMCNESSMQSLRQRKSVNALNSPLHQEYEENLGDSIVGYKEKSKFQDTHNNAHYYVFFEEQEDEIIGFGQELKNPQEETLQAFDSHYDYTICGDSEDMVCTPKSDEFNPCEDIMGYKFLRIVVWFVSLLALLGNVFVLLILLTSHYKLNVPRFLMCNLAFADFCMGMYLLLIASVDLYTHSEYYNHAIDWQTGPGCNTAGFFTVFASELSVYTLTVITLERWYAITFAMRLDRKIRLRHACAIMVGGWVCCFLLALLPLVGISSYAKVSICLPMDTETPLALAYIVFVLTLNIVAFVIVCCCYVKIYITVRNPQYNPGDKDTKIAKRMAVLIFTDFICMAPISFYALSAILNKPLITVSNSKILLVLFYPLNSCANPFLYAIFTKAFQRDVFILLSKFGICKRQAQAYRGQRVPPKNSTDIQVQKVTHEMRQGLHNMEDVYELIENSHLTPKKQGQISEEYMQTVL

B1: CGH: heterodimeric glycoprotein of GPHA2 and GPHB5 subunits, produced recombinantly in CHO cells (protein, listed as Homo sapiens)
alpha: QEAVIPGCHLHPFNVTVRSDRQGTCQGSHVAQACVGHCESSAFPSRYSVLVASGYRHNITSVSQCCTISGLKKVKVQLQCVGSRREELEIFTARACQCDMCRLSRY
beta: ASSGNLRTFVGCAVREFTFLAKKPGCRGLRITTDACWGRCETWEKPILEPPYIEAHHRVCTYNETKQVTVKLPNCAPGVDPFYTYPVAIRCDCGACSTATTECETI
For B1, the “activation of human TSHR” value (human TSHR) is given as “potently activates” and the “effect of treatment in rodents” value [1] is given as “improved glucose and lipid profiles and in reversed liver steatosis”.
